We go through 25 sequences from a protein production outcome set (Wang et al. 2014).

This series can be described thus: label from the status in PepcDB records.
Consider “RHQPEINQTPGEAQALFVWRDNQDHRDDIERHYLKMLTSARREVIIANAYFFPGYRLLHAMRNAARRGVRVKLIVQGEPDIPIVKFGAHLLYHYLVKGGVQIYEYRRRPLHGKVALADDHWATVGSSNLDPLSLSLNLEANLIIHDRVFNQTLRDNLNGLIARDCQRIDKTMLPKRNWWRLGVSVMAFHFLRHFPAWVGWLP”, for which the protein production entry was “failed”. Turning to “RIGDGSPSHPPILERTLDDVPGPPMGILFPEVRTTSVRLIWQPPAAPNGIILAYQITHRLNTTTANTATVEVLAPSARQYTATGLKPESVYLFRITAQTRKGWGEAAEALVVTTEKR”, the protein production result is on record as “not failed”. Regarding “RIKPGPNGRALLFIHGTFSTTDGSFGDLASAEFFGELARTYGNAIYGFDHYSVSVTPEKNASDILKTLPSGGIDCDVVTHSRGGLVLRTLNERQGDLSQGKRFRLQRAALVACPNEGTQLATPDRWQGTLGWLANLLDLFPPNPITSNAALVMHWVTWFAKVGVAAAEG”, the protein production entry is listed as “failed”. Regarding “RIPDIEEVELAEAPADKVLPDGFYVTTNHPTFVRYGGEWLPVEDISMDRVIVIRDGRAYCIPIDEVVRGDRVVVGEKGVRVVPPERPRKSTVFEFMGGRVSSERPTERMIEAIAREIYELKLKGGKIAVVAGPAVDHTSARNALAALIRDGYVDLLLSGNALAVHDIEISIFGTSLGMDICKGRPVPGGNRHHLYTISKVIAAGGIKKAIEKGIIKDGIMYECVKNNVPFILAGSIRDDGPLPEVITDVMVAKKKMKEALRGINMVIMLATMLHSIAVGNLLPSYVKTICVDMNPSTVTKLMDRGTHQAIGVVTDVGLFLPLLYLKIKE”, the protein production result is reported as “failed”. Next, “RIVGELEQMVSEDVPLDHRVHARIIGARGKAIRKIMDEFKVDIRFPQSGAPDPNCVTVTGLPENVEEAIDHILNLEEEYLAD”: “not failed”. Next, “RLAHVSAASRELARALEPDAVMAVLAGILRERLGFYRVTVALVREGALVGHLTRRGEDLYWTEGRSRIRLPVATSPDPMAQAVRERRTRIVPREALPPHLAEGVGASVAYVPVLVEEEALGCVAVDHGPGGPPVTEEEVEYVELLAGVAGVALRNAQLYRERTALSLALAAERKRLS”: “failed”.

For the sequence “RLKLLYDAGLGIGTTLDVLRTADELAQVAVPRFADFVTVDLADAVLHGEEPAPTATDLRRTAVCGIRDDHPLYELGQLIDFLPSTPQARGYGSGYSELVTDLSTATGWHAQDPERTKAIIDYGIHSLIAAPIQARGVVLGMANFWRSKQHEPFVEEEMSLAEELVARAAVSIDNARRYTREHALAVTLQRSL”, the protein production result is on record as “not failed”. Next, “RLNFLDTLGRAVTEATDPDQIMAITTRMLVEHLGLSSCAYAVMDPDEDGFTICGDAVTPGSPRLVGHYHLHDFGRLAVSRLRSGLALVINDNLRELAADEAATYQAIGITATICMPLIKGGRLTALMAIHDRVPRAWTDYEQTLISEVTERCWAHIQRAQAHAEVREAMAALEALNTTLE”: “failed”; “RLQPIIVPGWQGSGPGHWQTHWSRTLPHAVRLQQRDWHQPQRAEWVAALAAAVDAAPTPVLLVAHSLGCLVSAALPIALRAKVAGALLVAPADVERPGAPAAIAAFGPVPRQSLPYQSVVIASDDDPYCRLERARQFAQDWGSRLVVLQGAGHINADSQLGAWPQGLKQLAALRRRACW”: “failed”.

For “RLRQPMLRTGDQWQPIEWQAAFDLVAERLYAIQQQHGQNAVAVYQGNPSVHNYGLMTHSNYFLGLLKTRNRFSATSVDQLPHHLTSFLMYGHGMLLPIPDIDHTDFMLILGGNPLASNGSIMTVPDVEKRLKAIQQRGGKLVVVDPRRSETAAIADQHVFVRPGGDAALLFGLLNTLFEEGLTRESHLPVDGLDHVRHSIAGFSAEAMSPRCGIAAVQIRQLARDFAGADTALCYGRMGVSTQAFGTLCHWLAQLINLVTGNLDRVGGTLCTEPAVDLVSSTSGGHFNVWQSRVSGLPEYGGELPVSALAEEMLVEGQGQVRALVTVAGNPVLSTPNGRQLDQALEGLEFMLSIDLYINETTRHADLILPSTSALENDHYDTTFNTLAVRNVTRFNRAIFDKPEGALHDWEIFVGLAASFAAKAQRELKPTVPPAQMIDRVLRAGRYGAASPHNLSLETLASHPHGMDLGALKPNLTDRLKTANGRIQAAP”, the protein production entry is recorded as “failed”. Next, “RNFLNNQQIRAQVHRRILEQLPTEGEIVLLGHSLGSVIAADLLRRLPPELTVKGFVTIGSPLANGQFNVDDLFKLLRTPLSNVSWWVNFWSGS”: “failed”; “RNTNPGIKCFAVRSLGWVEMTEEELAPGRSSVAVNNCIRQLSYHKNNLHDPMSGGWGEG”: “failed”; “RPSWGYARSMAGRLAGATAVLDVQTGGGEVLDFALEAAGPHRAPLVAATEGWAPNVAQATRLLRPRGVPVVASADDAPLPFADGAFDLVVSRHPVEPHWDEVARVLMPGGTYFAQHVGPASVFELIEYFLGPLPEDSRRHRDPERERADAEAAGLEVVELRAERLRMEFLDIGAVVHFLRKVVWMVPGFTVEAYRDRLRDLHERIEADGPFVAHSSRHLFDVRKP”: “failed”. On to “RQRSLSTSGESLYHVLGLDKNATSDDIKKSYRKLALKYHPDKNPDNPEAADKFKEINNAHAILTDATKRNIYDKYGSLGLYVAEQFGEENVNTYFV”, for which the protein production result is reported as “not failed”. As to “RQVTDSDETEELIHLLLDNYAEGKIVKLLFMSENATQPVISQVAKENDVMLNVLHGNLTQTQNGAYGTLYVQVLGTEEAIEASLTQLRQLKVETEVLER”, the protein production result is listed as “not failed”. Next, “RRKVGVLVDGPNMLRKEFNINLKEIREILSEYGDIKIAKVFLNQYATEKLVEAIENQGFEPIVTSGDVDVRMAVEAMELIYNDSIDAVALVTRDADFKAVLMKAMEMGKETIIIGAEPGFSTALKNSADIAIVLNEDEE”: “failed”; “RRLPTVLLKLRMAQHLQAAVAFVEQGHVRVGPDVVTDPAFLVTRSMEDFVTWVDSSKI”: “not failed”; “RSRIDTALNRGRCGLWDWDLSRGRIFWSQSMFTILGLESRNDLLTFGEVNALVKGEDIDLFAIADELMAGRVDHIDHSFQMRHAHGHWIWLRMRCELTQEAGATEKHLIGIAVDITEQKSLAERSVEADLRLRDAIETIPEAFVLWDAENRLVLCNSHFQRL”: “failed”. The result for “RSRRFAHLQLFAHLELPCWARIRDLLNIGLPIGISILMEGGLFIVTTLLIGRFGTDEIAAHQIALSVAQLCFMIPMGVAEATTVRIGHAVGRCDLLVMRRVAWAGYAIVIGTQTLSASVLLLGYDVIVAAYTDDLVVASLASKLLLFAAIFQFPDGLQMLSSGVLRGMKDTRVPM” reads “failed”; that for “RTALRTEYALRQEAQAARKHAEGILASISDGFIALDEQYRFTYVNAAAERLIASTAEELIGKVYWDVYPMMLGTKIEQAYRRAMTERVACEFESYHPPSKRWFELRVAPTNGKSISVYFRDITEQKKAEAALRDINEQLEEQV”, “failed”; that for “RTFESVADLAAAAGEKVGQSDWVTITQEEVNLFADATGDHQWIHVDPERAAAGPFGTTIAHGFMTLALLPRLQHQMYTVKGVKLAINYGLNKVRFPAPVPVGSRVRATSSLVGVEDLGNGTVQATVSTTVEVEGSAKPACVAESIVRYVA”, “not failed”. The result for “RTHTGEKPYACSHCDKTFRQKQLLDMHFKRYHDPNFVPAAFVCSKCGKTFTRRNTMARHADNCAGPDGVEGEN” reads “not failed”; that for “RYTNILVPVDSSDAAQAAFTEAVNIAQRHQANLTALYVVDDSAYHTPALDPVLSELLDAEAAHAKDAMRQRQQFVATTSAPNLKTEISYGIPKHTIEDYAKQHPEIDLIVLGATGTNSPHRVAVGSTTSYVVDHAPCNVIVIR”, “not failed”; that for “SAAPGPALCLFDVDGTLTAPRQKITKEMDDFLQKLRQKIKIGVVGGSDFEKVQEQLGNDVVEKYDYVFPENGLVAYKDGKLLCRQNIQSHLGEALIQDLINYCLSYIAKIKLPKKRGTFIEFRNGMLNVSPIGRSCSQEERIEFYELDKKENIRQKFVADLRKEFAGKGLTFSIGGQISFDVFPDGWDKRYCLRHVENDGYKTIYFFGDKTMPGGNDHEIFTDPRTMGYSVTAPEDTRRICELLFS”, “not failed”. As to “SAAPVDLELKKAFTELQAKVIDTQQKVKLADIQIEQLNRTKKHAHLTDTEIMTLVDETNMYEGVGRMFILQSKEAIHSQLLEKQKIAEEKIKELEQKKSYLERSVKEAEDNIREMLMARRAQ”, the protein production result is reported as “failed”.
